What all share (test): flow cytometry on cells
For orientation: Flow cytometry measures light scatter and fluorescence of single cells or particles in a stream.

The target of experiment [1] is Mamu-KIR3DL05*008 (rhesus macaque).
Experiment [2] deals with Mamu-KIR3DL05*010 (rhesus macaque).
For experiment [3], the target named is Mamu-KIR3DL05*003 (rhesus macaque).
Experiment [4] has as its target Mamu-KIR3DL05*005 (rhesus macaque).
Experiment [5] addresses Mamu-KIR3DL05*004 (rhesus macaque).
For experiment [6], the target named is Mamu-KIR3DL05*001 (rhesus macaque).

Consider three substances from paper PMC3053351.

Regarding “Mamu-A1*00201 tetramer folded with SIV Env_(788-795) RY8 (from UniProt P61769 21-119) (peptide-MHC)”, the MFI of tetramer staining divided by MFI of HA staining in experiment [1] worked out at 0.07; in experiment [2], 0.07; in experiment [3], 0.06; in experiment [4], 0.03.
On to “Mamu-A1*00201 tetramer folded with SIV Gag_(71-79) GY9 (from UniProt P61769 21-119) (peptide-MHC)”, for which the MFI of tetramer staining divided by MFI of HA staining in experiment [1] was 1.49; in experiment [2], 1.55; in experiment [5], 1.99; in experiment [3] it was 1.57; in experiment [4], 0.55; in experiment [6] it was 0.02.
Consider “Mamu-A1*00201 tetramer folded with SIV Nef_(159-167) YY9 (from UniProt P61769 21-119) (peptide-MHC)”, for which the MFI of tetramer staining divided by MFI of HA staining was 0.03 in experiment [1]; 0.03 in experiment [2]; 0.13 in experiment [5]; 0.03 in experiment [3]; 0.01 in experiment [4].
